EP3574020B1

Target: commercially-prepared stable A-beta42 Oligomers (SynAging) (human)
Assay: SPR; antibody covalently immobilized, stable A-beta42 oligomers at 1 microM

commercially-prepared stable A-beta42 Oligomers (SynAging) (human), sequence (peptide, as listed by the source): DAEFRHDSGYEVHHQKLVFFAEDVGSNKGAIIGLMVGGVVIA

negative control IgG1 (antibody) showed a binding response units (BRU), mean of 2.5 BRU.
